The target in this assay is Myeloid-associated differentiation marker (human) (human (endogenous in blood eosinophils of asthmatic volunteers)) (UniProt Q96S97).
Sequence of UniProt Q96S97 (Q96S97 whole entry): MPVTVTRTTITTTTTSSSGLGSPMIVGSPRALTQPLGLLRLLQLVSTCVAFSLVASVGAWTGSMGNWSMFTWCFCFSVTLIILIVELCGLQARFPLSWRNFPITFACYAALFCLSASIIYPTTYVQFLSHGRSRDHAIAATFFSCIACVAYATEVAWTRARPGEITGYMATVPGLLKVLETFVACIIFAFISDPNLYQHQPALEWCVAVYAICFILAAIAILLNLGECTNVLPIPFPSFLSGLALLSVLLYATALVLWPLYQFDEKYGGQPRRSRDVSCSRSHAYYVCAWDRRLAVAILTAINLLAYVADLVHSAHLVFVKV

Regarding “Surfactant protein A (SP-A), preparation genotyped as homozygous for Q (Q/Q) at position 223 of SP-A2 (from UniProt Q8IWL2 21-248; Q8IWL1 21-248) (complex)”, the percent change in apoptotic human eosinophils (Siglec-8+, Annexin V/PI, flow cytometry, 16 h with SP-A) with pre-treatment using anti-MYADM (Invitrogen PA1-41578) compared to SP-A only was 22.5%.

Source of the values: publication PMC8642528.
